Measured values from patent US8343490B2, “Monoclonal antibody SC104 and derivative thereof specifically binding to a sialyltetraosyl carbohydrate as a potential anti-tumor therapeutic agent” (Cephalon Australia Pty Ltd, priority 2004, dated 2013).
Where two headings read alike, the source gives them in different places.

Legend:
C170 tumour cells = test: Annexin/PI dual colour flow cytometry; assay type: cell-based; details: concentration greater than 10 μg/ml; cells in suspension
Description: Annexin/PI. Tumour cells ([…]) or appropriate controls for 4 hr at room temperature could then also be stained with FITC labelled annexin and propidium iodide (Sigma, Poole, Dorset) and then analysed by dual colour flow cytometry.

C146 = test: Inhibition of cell growth, MTS; assay type: cell-based; details: 30 μg/ml
Experimental: (§1) Inhibition of cell growth. 1×10^3 colorectal C170, C168, C146, CaCO2, Colo205, LoVo and HT29 cells were aliquoted into individual wells of a flat bottomed 96-well plate and left to adhere overnight at 37° C. The following day the cells were treated with: 10, 3, 1, 0.3 and 0 μg/ml of SC104 mab. As a negative control 791T/36 at concentrations 100, 30, 10, 3 and 0 μg/ml, was titrated against each concentration of drug used. Triplicate wells were used. Cells were left for 5 days at 37° C. prior to the addition of MTS reagent to each well and optical density reading at 490 nm.

C168 = test: Inhibition of cell growth, MTS; assay type: cell-based; details: 30 μg/ml
Experimental: as §1

Colo205 = test: Inhibition of cell growth, MTS; assay type: cell-based
Experimental: as §1

CaCO2 = test: Inhibition of cell growth, MTS; assay type: cell-based; details: 30 μg/ml
Experimental: as §1

C170 = test: Inhibition of cell growth, MTS; assay type: cell-based
Experimental: as §1

HT-29 = test: Inhibition of cell growth, MTS; assay type: cell-based; details: 30 μg/ml
Experimental: as §1

[1] = test system: pan caspase in C170 cells; test: Pan caspase activation (FITC-FMK-vad, flow cytometry); assay type: cell-based; details: 30 μg/ml, up to 6 hrs; FIG. 17
Experimental: Pan caspase activation. 2×10^5 colorectal C170 cells were exposed to 30 μg/ml of SC104 for up to 6 hrs and pan caspase FITC-FMK-vad (caspACE FITC-vad-FMK, Promega, catalogue number G7462) employed to establish caspase activation. The cells were analysed by flow cytometry. Controls included a negative control murine antibody and a Fas antibody at 100 ng/ml.

[2] = test system: frozen normal tissue sections; test: Immunohistochemistry staining of frozen normal tissue sections; assay type: binding, Human
Experimental: • Immunohistochemistry staining of normal and tumour tissues. Human tissues were obtained from an Inveresk approved supplier. Each tissue used was snap frozen in liquid nitrogen and stored at approximately −70° C. (±10° C.). Cryostat sections were cut and placed onto super frost plus slides. All tissue samples were treated with an antigen marker appropriate for each tissue in order to confirm the preservation of antigens in that tissue. The markers used were keratin for epithelial bearing tissues, CD45 for all lymphoid tissues, and desmin for all cardiac and skeletal muscle. Each tissue was examined from three unrelated donors. The method of staining employed was an indirect, 2 or 3-stage method, using secondary and tertiary antibodies together with an avidin-biotin-peroxidase complex. Endogenous peroxidase activity was blocked using hydrogen peroxide. Endogenous biotin was blocked by treating all tissue sections with a sequence of avidin-biotin. When a tertiary antibody was used, all tissue sections were treated with normal swine serum, which inhibits the binding of tertiary antibodies to the tissues. Validation of the immunohistochemical staining method was determined by staining on positive control tissues, the absence on negative controls and the effect of fixation on staining of control tissues. SC104 was tested against 6 donors of colon tumour and one of heart at concentrations of […]. Tissues were fixed in either acetone or neutral buffered formalin. Two samples of colon tumour stained well enough for use as a positive control and there was no staining in heart. […] The lowest concentration of SC104 giving the maximum staining intensity was 1 μg/ml and this concentration was used for subsequent work. Results

[3] = HPTLC immunostaining of commercially available lipid standards; assay type: binding; details: standards of Table 6 (lactosyl ceramide, Gb3, globoside, Forrsman, GM3, AGM1, GM1, GD3, GD1a, GD1b, GT1b)
Description: The SC104 antigen has been compared to a number of commercially available lipid standards. Examples of each standard were spotted onto HPTLC plates and developed in 50:40:10 chloroform:methanol:CaCl2 (0.5% w/v). Plates were also spotted with partially purified SC104 antigen. Migration of each standard was detected by iodine vapour staining and the location of each marked on the plate. Plates were then probed with SC104.

C170 xenografts = assay type: in vivo
Experimental: Prevention model. The colorectal tumour cell line, C170 was maintained in serial passage in nude mice. For therapy the mice were sacrificed and the tumours excised. The tumour was finely minced and […] pieces were implanted, under anaesthetic, subcutaneously into 30 male mice which had been randomly allocated to 4 experimental groups.
Mice were explanted with 3 mm^3 pieces of C170 xenografts. Groups of mice were treated with 5-FU/leucovorin (12.5 mg/Kg) by intravenous infusion on days 1, 3, 5, 7 and 28. On the same days mice were also injected intraperitonealy with 0.2 mg of SC104 mab. Control mice received either SC104 alone or control mouse IgG antibody with 5-FU/leucovorin. Tumour size was measured by callipers and tumour cross sectional area calculated on days 7, 9, 12, 14 and 16. Animals were weighed to assess the toxicity of treatment. At the termination of the experiment tumours were weighed to assess anti-tumour efficacy.

normal colon = test: Immunohistochemistry of normal colon (screening); assay type: binding; set-up: key: −: negative; +: minimal; 2+: strong; 3+: very strong
[4] = concentrations in excess of 10 μg/ml, FIG. 20
[5] = Normal Tissues: Large intestine
[6] = Normal Tissues: Parotid salivary gland
[7] = Normal Tissues: Small intestine
[8] = Normal Tissues: Urinary Bladder

B1: SC104: mouse IgG1 monoclonal antibody specific for a sialyltetraosyl carbohydrate, raised by immunisation with colorectal cancer cell lines (antibody, V domains shown)
VH: DVQLQESGPDLVKPSQSLSLTCTVTGYSITSGYSWHWVRQFPGNKMEWMGHIHFSGRPTYNPSLSSRISITRDTSKNQFLLQLKFVTTEDTSTYFCARKGKGSDDGLNYWGQGISVTVSS
VL: ENVLTQSPVIMSASPGEKVTMTCSASSSLSYIHWYQQKSRTSPKLWIYDTSNLASGVPGRFSGSGSGNSYSLTISSMEAEDVATYYCFQGSEYPLTFGGGTKLEMT
Q: With B1 as the molecule, how does the “cells staining with PI” value (C170 tumour cells) read?
A: Its value is 75%.

Q: What about the “cells staining with annexin” value (C170 tumour cells) of the same molecule?
A: The value was 30%.

Q: What about the “cells staining with both annexin and PI” value (C170 tumour cells) of the same molecule?
A: Its value is 65%.

Q: What about the “% inhibition of cell growth as measured by MTS staining” value (shortened to “% inhibition of cell growth”) (C146) of the same molecule?
A: The value was 65%.

Q: What about the “% inhibition of cell growth” value (C168) of the same molecule?
A: Its value is 55%.

Q: What about the “% inhibition of cell growth” value (Colo205; 30 μg/ml) of the same molecule?
A: Its value is 55%.

Q: What about the “inhibition of growth of adherent cells (MTS)” value (Colo205; [4]) of the same molecule?
A: The value was “inhibited growth”.

Q: What about the “% inhibition of cell growth” value (CaCO2) of the same molecule?
A: The value was 20%.

Q: What about the “% inhibition of cell growth” value (C170; 30 μg/ml) of the same molecule?
A: Its value is 70%.

Q: What about the “inhibition of growth of adherent cells (MTS)” value (C170; [4]) of the same molecule?
A: Its value is “inhibited growth”.

Q: And the “% inhibition of cell growth” value (HT-29)?
A: The value was 5%.

Q: What about the pan caspase activation [1] of the same molecule?
A: The pan caspase activation was “activates pan caspases after 5 hrs”.

Q: And the Comments on staining ([2]; Normal Tissues: Brain)?
A: Its Comments on staining is “Small number of scattered glial cells”.

Q: What about the “Immunoreactivity with frozen tissue sections (binding)” value (from here on “Immunoreactivity”) ([2]; Normal Tissues: Brain) of the same molecule?
A: Its value is 1/2.

Q: And the Comments on staining ([2]; Normal Tissues: Breast)?
A: The Comments on staining was “Epithelial cells scattered moderate”.

Q: And the “Immunoreactivity” value ([2]; Normal Tissues: Breast)?
A: Its value is 2/3.

Q: What about the Comments on staining ([2]; Normal Tissues: Fallopian tube) of the same molecule?
A: Its Comments on staining is “Epithelial cells scattered moderate”.

Q: And the “Immunoreactivity” value ([2]; Normal Tissues: Fallopian tube)?
A: Its value is 2/3.

Q: What about the “Immunoreactivity” value ([2]; Normal Tissues: Heart) of the same molecule?
A: Its value is 0.

Q: What about the “Immunoreactivity” value ([2]; Normal Tissues: Kidney) of the same molecule?
A: Its value is 0.

Q: And the Comments on staining [2, 5]?
A: The Comments on staining was “Epithelial cells, mucous, diffuse”.

Q: And the “Immunoreactivity” value [2, 5]?
A: The value was 3/3.

Q: And the Comments on staining ([2]; Normal Tissues: Lung)?
A: The Comments on staining was “Alveolar lining cells one donor”.

Q: What about the “Immunoreactivity” value ([2]; Normal Tissues: Lung) of the same molecule?
A: The value was 2/3.

Q: What about the Comments on staining ([2]; Normal Tissues: Ovary) of the same molecule?
A: Its Comments on staining is “Follicular cells scattered and mild”.

Q: And the “Immunoreactivity” value ([2]; Normal Tissues: Ovary)?
A: The value was 3/3.

Q: And the Comments on staining [2, 6]?
A: The Comments on staining was “Moderate”.

Q: And the “Immunoreactivity” value [2, 6]?
A: Its value is 3/3.

Q: And the “Immunoreactivity” value ([2]; Normal Tissues: Placenta)?
A: Its value is 0.

Q: What about the Comments on staining ([2]; Normal Tissues: Prostate) of the same molecule?
A: The Comments on staining was “Epithelial cells scatted and moderate”.

Q: What about the “Immunoreactivity” value ([2]; Normal Tissues: Prostate) of the same molecule?
A: Its value is 3/3.

Q: What about the Comments on staining ([2]; Normal Tissues: Skin) of the same molecule?
A: Its Comments on staining is “Diffuse minimal staining”.

Q: And the “Immunoreactivity” value ([2]; Normal Tissues: Skin)?
A: The value was 2/3.

Q: What about the Comments on staining [2, 7] of the same molecule?
A: Its Comments on staining is “Mucus superficial, diffuse minimal”.

Q: And the “Immunoreactivity” value [2, 7]?
A: The value was 3/3.

Q: And the “Immunoreactivity” value ([2]; Normal Tissues: Spleen)?
A: The value was 0.

Q: What about the Comments on staining ([2]; Normal Tissues: Stomach) of the same molecule?
A: The Comments on staining was “Mucus superficial, diffuse mild”.

Q: And the “Immunoreactivity” value ([2]; Normal Tissues: Stomach)?
A: Its value is 2/3.

Q: What about the Comments on staining ([2]; Normal Tissues: Thymus) of the same molecule?
A: Its Comments on staining is “Epithelial cells, Hassall's corpuscle,”.

Q: And the “Immunoreactivity” value ([2]; Normal Tissues: Thymus)?
A: The value was 3/3.

Q: And the Comments on staining ([2]; Normal Tissues: Tonsil)?
A: Its Comments on staining is “Keratinised epithelium, membrane,”.

Q: What about the “Immunoreactivity” value ([2]; Normal Tissues: Tonsil) of the same molecule?
A: The value was 3/3.

Q: What about the Comments on staining [2, 8] of the same molecule?
A: The Comments on staining was “Epithelial cells transitional”.

Q: And the “Immunoreactivity” value [2, 8]?
A: Its value is 2/2.

Q: And the Comments on staining ([2]; Normal Tissues: Uterine cervix)?
A: Its Comments on staining is “Epithelial cells, membrane, diffuse”.

Q: And the “Immunoreactivity” value ([2]; Normal Tissues: Uterine cervix)?
A: Its value is 3/3.

Q: And the “recognition of lipid standards” value [3]?
A: The value was “none of the standards were recognised by SC104”.

Q: And the survival of mice (C170 xenografts; Log Rank, FIG. 26b)?
A: The survival of mice was “significant improvement of survival”.

Q: What about the “inhibition of tumour growth of freshly explanted tumours” value (C170 xenografts; SC104 200 μg/dose ip, 5-FU/leucovorin at maximum tolerated dose, FIG. 26a) of the same molecule?
A: Its value is 50%.

Q: What about the “inhibition of tumour growth” value (C170 xenografts; day 9) of the same molecule?
A: The value was 32%.

Q: And the “inhibition of tumour growth” value (C170 xenografts; day 12)?
A: The value was 44%.

Q: And the “inhibition of tumour growth” value (C170 xenografts; day 14)?
A: Its value is 54%.

Q: And the “inhibition of tumour growth” value (C170 xenografts; day 16)?
A: The value was 62%.

Q: And the “Immunohistochemistry Normal colon” value (normal colon)?
A: The value was “+”.
